According to PMC7082061 (PLoS Pathogens, 2020):

Legend:
[1] = biological target: VSV Gth (aa residues 1-422, VSV G fragment that was previously crystallized) (vesicular stomatitis virus); assay: negative staining electron microscopy
[2] = biological target: the molecule itself; assay: negative staining electron microscopy

VSV Gth (aa residues 1-422, VSV G fragment that was previously crystallized) (domain or fragment), sequence (P0C2X0 1-422): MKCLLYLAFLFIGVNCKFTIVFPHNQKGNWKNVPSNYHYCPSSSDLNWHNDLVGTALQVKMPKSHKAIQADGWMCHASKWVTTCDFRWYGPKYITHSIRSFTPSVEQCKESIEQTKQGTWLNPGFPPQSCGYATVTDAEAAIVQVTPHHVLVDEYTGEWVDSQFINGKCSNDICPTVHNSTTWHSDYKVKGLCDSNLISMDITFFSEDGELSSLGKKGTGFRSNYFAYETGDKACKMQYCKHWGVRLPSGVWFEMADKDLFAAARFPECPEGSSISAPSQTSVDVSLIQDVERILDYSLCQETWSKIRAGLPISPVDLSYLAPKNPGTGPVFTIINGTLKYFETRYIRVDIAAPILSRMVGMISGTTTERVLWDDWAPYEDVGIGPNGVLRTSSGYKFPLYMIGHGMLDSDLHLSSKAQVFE

Row | Molecule | stoichiometry N [1] | stoichiometry N [2]
1 | VSV Gth (aa residues 1-422, VSV G fragment that was previously crystallized) (domain or fragment) | 3 | –
2 | MOKV G_(1-436)WT (wild type Mokola virus glycoprotein G ectodomain) (domain or fragment) EFPLYTIPEKIEKWTPIDMIHLSCPNNLLSEEEGCNAESSFTYFELKSGYLAHQKVPGFTCTGVVNEAETYTNFVGYVTTTFKRKHFRPTVAACRDAYNWKVSGDPRYEESLHTPYPDSSWLRTVTTTKESLLIISPSIVEMDIYGRTLHSPMFPSGVCSNVYPSVPSCETNHDYTLWLPEDPSLSLVCDIFTSSNGKKAMNGSRICGFKDERGFYRSLKGACKLTLCGRPGIRLFDGTWVSFTKPDVHVWCTPNQLINIHNDRLDEIEHLIVEDIIKKREECLDTLETILMSQSVSFRRLSHFRKLVPGYGKAYTILNGSLMETNVYYKRVDKWADILPSKGCLKVGQQCMEPVKGVLFNGIIKGPDGQILIPEMQSEQLKQHMDLLKAAVFPLRHPLISREAVFKKDGDADDFVDLHMPDVHKSVSDVDLGLPH | – | 3
